# Paper PMC4725817 (Scientific Reports, 2016)
# Legend:
# [1] = target: T1, EBOV glycoprotein lacking the transmembrane domain (Kikwit) (Zaire ebolavirus, Kikwit-95, UniProt P87666); test: cell-based or functional assay
# [2] = target: T1, EBOV glycoprotein lacking the …; test: ELISA; details: both partners purified
# T1 sequence (P87666 33-650): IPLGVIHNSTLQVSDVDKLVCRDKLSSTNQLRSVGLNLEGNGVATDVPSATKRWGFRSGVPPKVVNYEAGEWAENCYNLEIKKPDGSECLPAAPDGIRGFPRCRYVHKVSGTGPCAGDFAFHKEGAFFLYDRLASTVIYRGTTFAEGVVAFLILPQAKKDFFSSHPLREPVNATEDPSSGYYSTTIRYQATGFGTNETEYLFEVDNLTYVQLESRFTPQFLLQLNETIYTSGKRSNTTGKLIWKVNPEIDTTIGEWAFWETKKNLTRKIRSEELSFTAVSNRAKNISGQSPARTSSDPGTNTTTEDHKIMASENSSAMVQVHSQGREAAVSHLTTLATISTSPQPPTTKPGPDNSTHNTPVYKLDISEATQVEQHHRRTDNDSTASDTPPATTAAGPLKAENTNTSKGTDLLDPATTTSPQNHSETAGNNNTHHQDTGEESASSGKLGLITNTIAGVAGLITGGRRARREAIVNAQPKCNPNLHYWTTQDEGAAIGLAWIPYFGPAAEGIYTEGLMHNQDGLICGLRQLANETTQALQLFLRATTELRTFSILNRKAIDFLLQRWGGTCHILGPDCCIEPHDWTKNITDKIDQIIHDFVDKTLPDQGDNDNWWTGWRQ
binder,measurement,setting,value
"KZ52 (human EBOV mAb, monospecific IgG1) (antibody, V domains shown, also called KZ52 IgG1; monospecific KZ52) VH: EVQLLESGGGLVKPGGSLRLSCAASGFTLINYRMNWVRQAPGKGLEWVSSISSSSSYIHYADSVKGRFTISRDNAENSLYLQMNSLRAEDTAVYYCVREGPRATGYSMADVFDIWGQGTMVTVSS VL: not shown","IC50 of neutralisation of VSV-GP_(EBOV), infection of Vero cells (eGFP)",[1],2.7 nM
same,EC50,[2],0.01 nM
